Earlier results in paper PMC5419744.

Biological target: DNA polymerase III subunit tau (Escherichia coli) (UniProt P06710)
Chain of UniProt P06710 (P06710 2-643): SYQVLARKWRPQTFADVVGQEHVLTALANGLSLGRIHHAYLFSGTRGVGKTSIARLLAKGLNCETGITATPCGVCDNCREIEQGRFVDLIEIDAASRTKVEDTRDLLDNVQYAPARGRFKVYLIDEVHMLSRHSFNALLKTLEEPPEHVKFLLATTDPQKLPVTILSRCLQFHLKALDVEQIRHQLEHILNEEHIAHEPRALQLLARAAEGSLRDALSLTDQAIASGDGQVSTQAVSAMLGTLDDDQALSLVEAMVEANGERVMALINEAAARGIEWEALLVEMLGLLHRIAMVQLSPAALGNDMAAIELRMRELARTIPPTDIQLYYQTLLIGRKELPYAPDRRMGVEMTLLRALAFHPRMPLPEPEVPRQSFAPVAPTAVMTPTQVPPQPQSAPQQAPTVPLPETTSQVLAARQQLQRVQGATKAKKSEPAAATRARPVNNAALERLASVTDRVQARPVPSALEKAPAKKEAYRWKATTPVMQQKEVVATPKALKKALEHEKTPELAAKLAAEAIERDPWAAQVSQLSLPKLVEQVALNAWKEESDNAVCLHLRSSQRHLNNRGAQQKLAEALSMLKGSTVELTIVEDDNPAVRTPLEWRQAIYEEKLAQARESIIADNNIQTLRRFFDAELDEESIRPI

Kd: 0.3 nM
Substance: DNA polymerase III subunit alpha (from UniProt P10443)
